Numbered stars: 1 amine (or outer) side, 2 acyl side, 3 side chain; on linkers, the order of the positions; unused ones are H or OH. Square brackets hold non-standard residues; d marks the D form. Primed or numbered codes have the meaning given here. Ends that are not written are not given here. * marks the point of attachment. Ida = iminodiacetic acid, O=C(CN(CC(=O)[*:3])[*:1])[*:2]; PEG8(3) = PEG8 side chain conjugate on Lys; β3hP = O=C(O)C[C@@H]1CCCN1; Isovaleryl = CC(C)CC(=O)*
B1: Compound 291 (peptide)
peptide: Isovaleryl-DTHFPCIKF-NH2
SMILES: CC[C@H](C)[C@H](NC(=O)[C@H](CS)NC(=O)[C@@H]1CCCN1C(=O)[C@H](Cc1ccccc1)NC(=O)[C@H](Cc1c[nH]cn1)NC(=O)[C@@H](NC(=O)[C@H](CC(=O)O)NC(=O)CC(C)C)[C@@H](C)O)C(=O)N[C@@H](CCCCN)C(=O)N[C@@H](Cc1ccccc1)C(N)=O
B2: Compound 358 (peptide)
peptide: DTHFPCIKFKPHSKECK
modifications: not fully specified; N-terminal isovaleric acid; K10(isoglu-Palm); C-terminal NH2
B3: Compound 288 (peptide)
peptide: Isovaleryl-DTHFPCIIF-NH2
SMILES: CC[C@H](C)[C@H](NC(=O)[C@H](CS)NC(=O)[C@@H]1CCCN1C(=O)[C@H](Cc1ccccc1)NC(=O)[C@H](Cc1c[nH]cn1)NC(=O)[C@@H](NC(=O)[C@H](CC(=O)O)NC(=O)CC(C)C)[C@@H](C)O)C(=O)N[C@H](C(=O)N[C@@H](Cc1ccccc1)C(N)=O)[C@@H](C)CC

What follows are binders tested against T1, human ferroportin (SLC40A1) fused in frame with GFP, stably expressed on HEK293 cells (human, UniProt Q9NP59 1-571) (assay: cell-based or functional assay).
T1 sequence (looked up): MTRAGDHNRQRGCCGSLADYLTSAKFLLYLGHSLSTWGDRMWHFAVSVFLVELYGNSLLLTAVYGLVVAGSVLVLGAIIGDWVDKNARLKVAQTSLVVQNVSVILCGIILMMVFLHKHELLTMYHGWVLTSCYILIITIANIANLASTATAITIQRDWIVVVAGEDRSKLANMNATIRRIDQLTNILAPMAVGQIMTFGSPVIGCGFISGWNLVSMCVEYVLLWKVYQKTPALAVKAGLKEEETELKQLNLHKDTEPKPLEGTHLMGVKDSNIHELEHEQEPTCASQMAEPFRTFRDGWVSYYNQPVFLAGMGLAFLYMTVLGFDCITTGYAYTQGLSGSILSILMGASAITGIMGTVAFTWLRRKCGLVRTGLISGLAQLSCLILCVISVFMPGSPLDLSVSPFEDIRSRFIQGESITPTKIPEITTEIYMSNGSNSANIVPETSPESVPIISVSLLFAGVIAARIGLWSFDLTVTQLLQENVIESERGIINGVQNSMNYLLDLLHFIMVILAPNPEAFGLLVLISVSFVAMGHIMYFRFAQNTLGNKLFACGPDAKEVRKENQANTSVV

H-DTAFPCIIF-NH2 [Compound 283 (DTAFPCIIF-NH2)] was tested. Which “EC50 (nM) (n > 3)” value did it give?
The value was 739 nM.

Which “EC50 (nM) (n > 3)” value does the source give for H-DTHFPCIAF-NH2 [Compound 51 (DTHFPCIAF-NH2)] here?
The value was 382 nM.

Which “EC50 (nM) (n > 3)” value does the source give for H-DTHFPCIIA-NH2 [Compound 278 (DTHFPCIIA-NH2)] here?
The value was over 1000 nM.

For H-DTHFPCAIF-NH2 [Compound 279 (DTHFPCAIF-NH2)], which “EC50 (nM) (n > 3)” value is on record?
The value was over 1000 nM.

How did the “EC50 (nM) (n > 3)” value turn out when H-DTHFACIIF-NH2 [Compound 280 (DTHFACIIF-NH2)] was run?
The value was over 1000 nM.

Each binder was assayed against T2, human ferroportin (SLC40A1) fused in frame with GFP, stably expressed in HEK293 cells (human, UniProt Q9NP59 1-571) (assay: cell-based or functional assay).
T2 sequence (looked up): T1 sequence (looked up)

For Isovaleryl-DTHFPCIKKEPHSKECK-NH2 (not fully specified (bridges); cysteine pairing not given here) [Compound 357], which “Potency EC50 (nM)” value is on record?
The value was over 1000 nM.

Which “Potency: % (activity) at 1 µM” value does the source give for H-DTHFPCIIK-NH2 [Compound 304] here?
Its value is 55%.

With H-DTHFPCILF-NH2 [Compound 308] as the binder, how does the “Potency: % (activity) at 1 µM” value read?
Its value is 89%.

H-DTHFPCIF-NH2 [Compound 293] was tested. Which “Potency: % (activity) at 1 µM” value did it give?
The value was 52%.

For H-ATHFPCIIF-NH2 [Compound 284], which “Potency EC50 (nM)” value is on record?
The value was over 1000 nM.

For H-DTHFPCILK-NH2 [Compound 309], which “Potency: % (activity) at 1 µM” value is on record?
The value was 55%.

For H-LTHFPCIIF-NH2 [Compound 299], which “Potency: % (activity) at 1 µM” value is on record?
Its value is 64%.

For H-DTKFPCIIF-NH2 [Compound 302], which “Potency: % (activity) at 1 µM” value is on record?
Its value is 60%.

For H-DTHFPCIVF-NH2 [Compound 307], which “Potency: % (activity) at 1 µM” value is on record?
Its value is 75%.

How did the “Potency: % (activity) at 1 µM” value turn out when H-ETHFPCIIF-NH2 [Compound 300] was run?
The value was 77%.

For B1, which “Potency EC50” value is on record?
Its value is 7 nM.

With H-DTHFPCIEK-NH2 [Compound 310] as the binder, how does the “Potency: % (activity) at 1 µM” value read?
Its value is 0%.

With [Ida]THF[β3hP]CIIF-NH2 [Compound 285] as the binder, how does the “Potency EC50 (nM)” value read?
Its value is over 1000 nM.

H-DTHFPCIKFF-NH2 [Compound 297] was tested. Which “Potency: % (activity) at 1 µM” value did it give?
The value was 64%.

For H-DTHFPCIEF-NH2 [Compound 287], which “Potency EC50 (nM)” value is on record?
The value was over 1000 nM.

With H-DTHFACIIF-NH2 [Compound 280] as the binder, how does the “Potency EC50 (nM)” value read?
Its value is over 1000 nM.

Which “Potency EC50” value does the source give for B2 here?
The value was 6 nM.

Which “Potency EC50” value does the source give for H-DTAFPCIIF-NH2 [Compound 283] here?
The value was 739 nM.

Which “Potency: % (activity) at 1 µM” value does the source give for H-DTHFPCIIR-NH2 [Compound 305] here?
Its value is 62%.

Target: T2, human ferroportin (SLC40A1) fused in …
Assay: cell-based or functional assay
Remark: another data set of the same source

How did the “EC50 (nM) (n = 3)” value turn out when H-DTHFPCIIK-NH2 [Compound 304] was run?
Its value is over 1000 nM.

Which “EC50 (nM) (n = 3)” value does the source give for H-DTHFPCIF-NH2 (also: homodimer via disulfide between Cys6 of each monomer) [Compound 312] here?
The value was over 300 nM.

Which “EC50 (nM) (n = 3)” value does the source give for H-DTHFPCIF-NH2 [Compound 293] here?
The value was over 1000 nM.

For Isovaleryl-DTHFPCIIF-NH2 (also: homodimer via disulfide between Cys6 of each monomer) [Compound 325], which “% Activity At 1 uM” value is on record?
The value was 100%.

Which “% Activity At 1 uM” value does the source give for B3 here?
The value was 100%.

H-DTHFPCIIK-NH2 (also: homodimer via disulfide between Cys6 of each monomer) [Compound 318] was tested. Which “EC50 (nM) (n = 3)” value did it give?
The value was over 300 nM.

With H-DTHFPCILK-NH2 [Compound 309] as the binder, how does the “EC50 (nM) (n = 3)” value read?
The value was over 300 nM.

Which “EC50 (nM) (n = 3)” value does the source give for H-DTHFPCIKFF-NH2 (also: homodimer via disulfide between Cys6 of each monomer) [Compound 314] here?
Its value is 130 nM.

With H-DTKFPCIIF-NH2 (also: homodimer via disulfide between Cys6 of each monomer) [Compound 317] as the binder, how does the “EC50 (nM) (n = 3)” value read?
Its value is 137 nM.

For H-DTKFPCIIF-NH2 [Compound 302], which “EC50 (nM) (n = 3)” value is on record?
Its value is over 1000 nM.

What does the source list for H-DTHFPCIEK-NH2 (also: homodimer via disulfide between Cys6 of each monomer) [Compound 323]?
% Activity At 1 uM: 0%; EC50 (nM) (n = 3): > 1000 nM

For B1, which “% Activity At 1 uM” value is on record?
The value was 100%.

What about the “EC50 (nM) (n = 3)” value of the same binder?
Its value is 7 nM.

Which results are given for H-DTHFPCIEK-NH2 [Compound 310]?
% Activity At 1 uM: 0%; EC50 (nM) (n = 3): > 1000 nM

With H-DTHFPCIKFF-NH2 [Compound 297] as the binder, how does the “EC50 (nM) (n = 3)” value read?
Its value is over 300 nM.

Which “EC50 (nM) (n = 3)” value does the source give for H-DTHFPCILK-NH2 (also: homodimer via disulfide between Cys6 of each monomer) [Compound 322] here?
The value was over 300 nM.

H-DTHFPCIIR-NH2 [Compound 305] was tested. Which “EC50 (nM) (n = 3)” value did it give?
Its value is over 1000 nM.

For H-DTHFPCIIR-NH2 (also: homodimer via disulfide between Cys6 of each monomer) [Compound 319], which “EC50 (nM) (n = 3)” value is on record?
The value was 268 nM.

Target: T2, human ferroportin (SLC40A1) fused in …
Assay: cell-based or functional assay
Remark: another data set of the same source

Isovaleryl-DTHFPCIQFGPRSKGWVCK-NH2 (not fully specified (bridges); cysteine pairing not given here) [Compound 10] was tested. Which “In Vitro Activity EC50” value did it give?
Its value is 35 nM.

For Isovaleryl-DTHFPCIIFEPRSKGWVCK-NH2 (not fully specified (bridges); cysteine pairing not given here) [Compound 105], which “In Vitro Activity EC50” value is on record?
Its value is 10 nM.

How did the “In Vitro Activity EC50” value turn out when Isovaleryl-DTHFPICIFGPRSK(PEG8(3))GWVC-NH2 (not fully specified (bridges); cysteine pairing not given here) [Compound 176] was run?
The value was 6 nM.

How did the “In Vitro Activity EC50” value turn out when Isovaleryl-DTHFPCIKFEPRSKGWVCK-NH2 (not fully specified (bridges); cysteine pairing not given here) [Compound 181] was run?
The value was 15 nM.

With Isovaleryl-DTHFPCIIFGPRSKGCK-NH2 (not fully specified (bridges); cysteine pairing not given here) [Compound 115] as the binder, how does the “In Vitro Activity EC50” value read?
The value was 21 nM.

For Isovaleryl-DTHFPCIKFGPRSKGWVCK(PEG8(3))-NH2 (not fully specified (bridges); cysteine pairing not given here) [Compound 153], which “In Vitro Activity EC50” value is on record?
The value was 18 nM.

With Isovaleryl-DTHFPCIKFEPRSKGCK-NH2 (not fully specified (bridges); cysteine pairing not given here) [Compound 184] as the binder, how does the “In Vitro Activity EC50” value read?
The value was 16 nM.

Which “In Vitro Activity EC50” value does the source give for DTHFPCIKFKPRSKGWVCK (not fully specified; N-terminal isovaleric acid; K10(PEG8); C-terminal NH2) [Compound 150] here?
The value was 7 nM.

For Isovaleryl-DTHFPCIKFGPRSKGWVCK-NH2 (not fully specified (bridges); cysteine pairing not given here) [Compound 9], which “In Vitro Activity EC50” value is on record?
Its value is 32 nM.

Source: patent US20250340608A1 (PROTAGONIST THERAPEUTICS, published 2025)
